Measured values as given in PMC9835956 (Science (New York, N.y.), 2021).

Legend:
[1] = target: SARS-CoV-2 WT NTD with the native signal peptide (SARS-CoV-2, Wuhan-Hu-1 (wild type), UniProt P0DTC2); experiment: ELISA; details: both partners purified
[2] = target: SARS-CoV-2 S N-terminal domain (NTD), wild type, with the native signal peptide (SARS-CoV-2, Wuhan-Hu-1 (wild type), UniProt P0DTC2); experiment: ELISA; details: both partners purified

Row | Binder | binding result [1] | binding result [2]
1 | S2L20 mAb (antibody, V domains shown) VH: EVQLVESGGGVVQPGGSLRLSCAASGFTFNSYGMHWVRQAPGKGLEWVAFIRYDGGNKYYADSVKGRFTISRDNSKNTLYLQMKSLRAEDTAVYYCANLKDSRYSGSYYDYWGQGTLVTVS VL: not shown | binds | –
2 | S2X333 mAb (NTD-specific, neutralizing, antigenic site i) (antibody, V domains shown) VH: VQLVESGGGVVQPGRSLRLSCAASGFTFSNYGMHWVRQAPGKGLEWVAVIWYDGSNKFYADSVKGRFTISRDNSKNSLYLQMNSLRAEDTAVYFCARAFPDSSSWSGFTIDYWGQGTLVTV VL: YELTQPPSVSTARITCGGNNIERKSVHWCQQKPGQAPALVVYDDSDRPSGIPERFSGSNSGNTATLTISRVEAGDEADYYCQVWDSGSDQVIFGGGTKLT | – | binds
